Data: patent US20110294738A1, “PTHR1 RECEPTOR COMPOUNDS” (priority 2008, published 2011)
* marks the point of attachment. Palmitoyl = CCCCCCCCCCCCCCCC(=O)*

Target: PTHR1 receptor
Sequence (P25961 whole entry): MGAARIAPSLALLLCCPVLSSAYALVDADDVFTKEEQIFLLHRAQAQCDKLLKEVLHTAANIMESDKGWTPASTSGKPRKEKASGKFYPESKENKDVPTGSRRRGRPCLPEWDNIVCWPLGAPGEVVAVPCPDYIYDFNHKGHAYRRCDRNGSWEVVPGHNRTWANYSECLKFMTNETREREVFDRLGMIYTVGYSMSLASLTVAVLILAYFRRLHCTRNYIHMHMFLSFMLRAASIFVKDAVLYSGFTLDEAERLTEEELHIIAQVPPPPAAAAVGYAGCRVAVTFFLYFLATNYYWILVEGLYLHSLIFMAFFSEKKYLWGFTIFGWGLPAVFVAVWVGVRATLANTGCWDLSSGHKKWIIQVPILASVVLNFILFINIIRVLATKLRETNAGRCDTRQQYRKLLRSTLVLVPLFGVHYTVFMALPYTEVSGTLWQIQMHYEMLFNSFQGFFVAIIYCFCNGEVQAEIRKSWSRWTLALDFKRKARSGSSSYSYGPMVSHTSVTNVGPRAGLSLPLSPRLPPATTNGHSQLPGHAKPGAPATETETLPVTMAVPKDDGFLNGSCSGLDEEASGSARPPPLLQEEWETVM

Binder | Fold Shift of EC50 | Inhibition of Maximal Response
Palmitoyl-LAYFRRLHSTRNYIH-NH2 (SMILES CCCCCCCCCCCCCCCC(=O)N[C@@H](CC(C)C)C(=O)N[C@@H](C)C(=O)N[C@@H](Cc1ccc(O)cc1)C(=O)N[C@@H](Cc1ccccc1)C(=O)N[C@@H](CCCNC(=N)N)C(=O)N[C@@H](CCCNC(=N)N)C(=O)N[C@@H](CC(C)C)C(=O)N[C@@H](Cc1c[nH]cn1)C(=O)N[C@@H](CO)C(=O)N[C@H](C(=O)N[C@@H](CCCNC(=N)N)C(=O)N[C@@H](CC(N)=O)C(=O)N[C@@H](Cc1ccc(O)cc1)C(=O)N[C@H](C(=O)N[C@@H](Cc1c[nH]cn1)C(N)=O)[C@@H](C)CC)[C@@H](C)O) [Compound 5] | 1 fold | 13%
Palmitoyl-SGRRLHSTRNYIHMH-NH2 (SMILES CCCCCCCCCCCCCCCC(=O)N[C@@H](CO)C(=O)NCC(=O)N[C@@H](CCCNC(=N)N)C(=O)N[C@@H](CCCNC(=N)N)C(=O)N[C@@H](CC(C)C)C(=O)N[C@@H](Cc1c[nH]cn1)C(=O)N[C@@H](CO)C(=O)N[C@H](C(=O)N[C@@H](CCCNC(=N)N)C(=O)N[C@@H](CC(N)=O)C(=O)N[C@@H](Cc1ccc(O)cc1)C(=O)N[C@H](C(=O)N[C@@H](Cc1c[nH]cn1)C(=O)N[C@@H](CCSC)C(=O)N[C@@H](Cc1c[nH]cn1)C(N)=O)[C@@H](C)CC)[C@@H](C)O) [Compound 17] | 2.8 fold | 39.4%
Palmitoyl-LAYFRRLHSTR-NH2 (SMILES CCCCCCCCCCCCCCCC(=O)N[C@@H](CC(C)C)C(=O)N[C@@H](C)C(=O)N[C@@H](Cc1ccc(O)cc1)C(=O)N[C@@H](Cc1ccccc1)C(=O)N[C@@H](CCCNC(=N)N)C(=O)N[C@@H](CCCNC(=N)N)C(=O)N[C@@H](CC(C)C)C(=O)N[C@@H](Cc1c[nH]cn1)C(=O)N[C@@H](CO)C(=O)N[C@H](C(=O)N[C@@H](CCCNC(=N)N)C(N)=O)[C@@H](C)O) [Compound 4] | 0.9 fold | -74.2%
Palmitoyl-RRLHSTRNYIHMHL-NH2 (SMILES CCCCCCCCCCCCCCCC(=O)N[C@@H](CCCNC(=N)N)C(=O)N[C@@H](CCCNC(=N)N)C(=O)N[C@@H](CC(C)C)C(=O)N[C@@H](Cc1c[nH]cn1)C(=O)N[C@@H](CO)C(=O)N[C@H](C(=O)N[C@@H](CCCNC(=N)N)C(=O)N[C@@H](CC(N)=O)C(=O)N[C@@H](Cc1ccc(O)cc1)C(=O)N[C@H](C(=O)N[C@@H](Cc1c[nH]cn1)C(=O)N[C@@H](CCSC)C(=O)N[C@@H](Cc1c[nH]cn1)C(=O)N[C@@H](CC(C)C)C(N)=O)[C@@H](C)CC)[C@@H](C)O) [Compound 16] | 2.45 fold | 0.0965
Palmitoyl-RRLHSTRNYIHM-NH2 (SMILES CCCCCCCCCCCCCCCC(=O)N[C@@H](CCCNC(=N)N)C(=O)N[C@@H](CCCNC(=N)N)C(=O)N[C@@H](CC(C)C)C(=O)N[C@@H](Cc1c[nH]cn1)C(=O)N[C@@H](CO)C(=O)N[C@H](C(=O)N[C@@H](CCCNC(=N)N)C(=O)N[C@@H](CC(N)=O)C(=O)N[C@@H](Cc1ccc(O)cc1)C(=O)N[C@H](C(=O)N[C@@H](Cc1c[nH]cn1)C(=O)N[C@@H](CCSC)C(N)=O)[C@@H](C)CC)[C@@H](C)O) [Compound 15] | 1.7 fold | 1.5%
Palmitoyl-GSEKKYLWGFTVF-NH2 (SMILES CCCCCCCCCCCCCCCC(=O)NCC(=O)N[C@@H](CO)C(=O)N[C@@H](CCC(=O)O)C(=O)N[C@@H](CCCCN)C(=O)N[C@@H](CCCCN)C(=O)N[C@@H](Cc1ccc(O)cc1)C(=O)N[C@@H](CC(C)C)C(=O)N[C@@H](Cc1c[nH]c2ccccc12)C(=O)NCC(=O)N[C@@H](Cc1ccccc1)C(=O)N[C@H](C(=O)N[C@H](C(=O)N[C@@H](Cc1ccccc1)C(N)=O)C(C)C)[C@@H](C)O) [Compound 41] | 0.9 fold | 17.7%

Other lines, results leading:

Fold Shift of EC50 | Inhibition of Maximal Response | Binder
4.7 fold | 37.2% | Palmitoyl-KKSWSRWTLALDFKRKAR-NH2 (SMILES CCCCCCCCCCCCCCCC(=O)N[C@@H](CCCCN)C(=O)N[C@@H](CCCCN)C(=O)N[C@@H](CO)C(=O)N[C@@H](Cc1c[nH]c2ccccc12)C(=O)N[C@@H](CO)C(=O)N[C@@H](CCCNC(=N)N)C(=O)N[C@@H](Cc1c[nH]c2ccccc12)C(=O)N[C@H](C(=O)N[C@@H](CC(C)C)C(=O)N[C@@H](C)C(=O)N[C@@H](CC(C)C)C(=O)N[C@@H](CC(=O)O)C(=O)N[C@@H](Cc1ccccc1)C(=O)N[C@@H](CCCCN)C(=O)N[C@@H](CCCNC(=N)N)C(=O)N[C@@H](CCCCN)C(=O)N[C@@H](C)C(=O)N[C@@H](CCCNC(=N)N)C(N)=O)[C@@H](C)O) [Compound 97]
1 fold | 0.5% | Palmitoyl-NGEVQAEIKKSWSRWTLA-NH2 (SMILES CCCCCCCCCCCCCCCC(=O)N[C@@H](CC(N)=O)C(=O)NCC(=O)N[C@@H](CCC(=O)O)C(=O)N[C@H](C(=O)N[C@@H](CCC(N)=O)C(=O)N[C@@H](C)C(=O)N[C@@H](CCC(=O)O)C(=O)N[C@H](C(=O)N[C@@H](CCCCN)C(=O)N[C@@H](CCCCN)C(=O)N[C@@H](CO)C(=O)N[C@@H](Cc1c[nH]c2ccccc12)C(=O)N[C@@H](CO)C(=O)N[C@@H](CCCNC(=N)N)C(=O)N[C@@H](Cc1c[nH]c2ccccc12)C(=O)N[C@H](C(=O)N[C@@H](CC(C)C)C(=O)N[C@@H](C)C(N)=O)[C@@H](C)O)[C@@H](C)CC)C(C)C) [Compound 98]
1.3 fold | 40.8% | Palmitoyl-GSEKKYLWGFT-NH2 (SMILES CCCCCCCCCCCCCCCC(=O)NCC(=O)N[C@@H](CO)C(=O)N[C@@H](CCC(=O)O)C(=O)N[C@@H](CCCCN)C(=O)N[C@@H](CCCCN)C(=O)N[C@@H](Cc1ccc(O)cc1)C(=O)N[C@@H](CC(C)C)C(=O)N[C@@H](Cc1c[nH]c2ccccc12)C(=O)NCC(=O)N[C@@H](Cc1ccccc1)C(=O)N[C@H](C(N)=O)[C@@H](C)O) [Compound 42]
1.1 fold | 7% | Palmitoyl-EIKKSWSRWTLALDFKRKAR-NH2 (SMILES CCCCCCCCCCCCCCCC(=O)N[C@@H](CCC(=O)O)C(=O)N[C@H](C(=O)N[C@@H](CCCCN)C(=O)N[C@@H](CCCCN)C(=O)N[C@@H](CO)C(=O)N[C@@H](Cc1c[nH]c2ccccc12)C(=O)N[C@@H](CO)C(=O)N[C@@H](CCCNC(=N)N)C(=O)N[C@@H](Cc1c[nH]c2ccccc12)C(=O)N[C@H](C(=O)N[C@@H](CC(C)C)C(=O)N[C@@H](C)C(=O)N[C@@H](CC(C)C)C(=O)N[C@@H](CC(=O)O)C(=O)N[C@@H](Cc1ccccc1)C(=O)N[C@@H](CCCCN)C(=O)N[C@@H](CCCNC(=N)N)C(=O)N[C@@H](CCCCN)C(=O)N[C@@H](C)C(=O)N[C@@H](CCCNC(=N)N)C(N)=O)[C@@H](C)O)[C@@H](C)CC) [Compound 96]
0.8 fold | 32.3% | Palmitoyl-SGRVLATKLRETNA-NH2 (SMILES CCCCCCCCCCCCCCCC(=O)N[C@@H](CO)C(=O)NCC(=O)N[C@@H](CCCNC(=N)N)C(=O)N[C@H](C(=O)N[C@@H](CC(C)C)C(=O)N[C@@H](C)C(=O)N[C@H](C(=O)N[C@@H](CCCCN)C(=O)N[C@@H](CC(C)C)C(=O)N[C@@H](CCCNC(=N)N)C(=O)N[C@@H](CCC(=O)O)C(=O)N[C@H](C(=O)N[C@@H](CC(N)=O)C(=O)N[C@@H](C)C(N)=O)[C@@H](C)O)[C@@H](C)O)C(C)C) [Compound 73]
0.7 fold | 22.3% | Palmitoyl-SGRVLATKLRET-NH2 (SMILES CCCCCCCCCCCCCCCC(=O)N[C@@H](CO)C(=O)NCC(=O)N[C@@H](CCCNC(=N)N)C(=O)N[C@H](C(=O)N[C@@H](CC(C)C)C(=O)N[C@@H](C)C(=O)N[C@H](C(=O)N[C@@H](CCCCN)C(=O)N[C@@H](CC(C)C)C(=O)N[C@@H](CCCNC(=N)N)C(=O)N[C@@H](CCC(=O)O)C(=O)N[C@H](C(N)=O)[C@@H](C)O)[C@@H](C)O)C(C)C) [Compound 72]
1.4 fold | 5.7% | Palmitoyl-GSEKKYLWG-NH2 (SMILES CCCCCCCCCCCCCCCC(=O)NCC(=O)N[C@@H](CO)C(=O)N[C@@H](CCC(=O)O)C(=O)N[C@@H](CCCCN)C(=O)N[C@@H](CCCCN)C(=O)N[C@@H](Cc1ccc(O)cc1)C(=O)N[C@@H](CC(C)C)C(=O)N[C@@H](Cc1c[nH]c2ccccc12)C(=O)NCC(N)=O) [Compound 43]
1.9 fold | 22.2% | Palmitoyl-SGRVLATKLRETNAGR-NH2 (SMILES CCCCCCCCCCCCCCCC(=O)N[C@@H](CO)C(=O)NCC(=O)N[C@@H](CCCNC(=N)N)C(=O)N[C@H](C(=O)N[C@@H](CC(C)C)C(=O)N[C@@H](C)C(=O)N[C@H](C(=O)N[C@@H](CCCCN)C(=O)N[C@@H](CC(C)C)C(=O)N[C@@H](CCCNC(=N)N)C(=O)N[C@@H](CCC(=O)O)C(=O)N[C@H](C(=O)N[C@@H](CC(N)=O)C(=O)N[C@@H](C)C(=O)NCC(=O)N[C@@H](CCCNC(=N)N)C(N)=O)[C@@H](C)O)[C@@H](C)O)C(C)C) [Compound 74]
1.1 fold | 12.6% | Palmitoyl-RVLATKLRETNAGR-NH2 (SMILES CCCCCCCCCCCCCCCC(=O)N[C@@H](CCCNC(=N)N)C(=O)N[C@H](C(=O)N[C@@H](CC(C)C)C(=O)N[C@@H](C)C(=O)N[C@H](C(=O)N[C@@H](CCCCN)C(=O)N[C@@H](CC(C)C)C(=O)N[C@@H](CCCNC(=N)N)C(=O)N[C@@H](CCC(=O)O)C(=O)N[C@H](C(=O)N[C@@H](CC(N)=O)C(=O)N[C@@H](C)C(=O)NCC(=O)N[C@@H](CCCNC(=N)N)C(N)=O)[C@@H](C)O)[C@@H](C)O)C(C)C) [Compound 75]
